Data published in the nanobody polyreactivity screen of Harvey et al. (2022).

Assay: yeast display, Sf9 membrane polyspecificity reagent, FACS + sequencing; frameworks hold sequencing errors
How it was run: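 Nanobodies from a synthetic yeast display library (Saccharomyces cerevisiae BJ5465), induced 36–48 hours with galactose, were stained 1 hour at 4 °C with 10% biotinylated, detergent-solubilized Sf9 membrane reagent, enriched on streptavidin microbeads, then FACS-sorted. Anti-HA (expression) and streptavidin (reagent binding) fluorescence set low and high (top ~1%) gates. Polyreactivity labels come from the gate of origin. Genes were colony-PCR amplified, MiSeq 2 × 250 sequenced and filtered by CDR length.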

Sequence	polyreactivity (PSR sort gate)
QVQLVESGGGLVQAGGSLRLSCAASGSTFRYYAMGWYRQAPGKERELVATITGSGGSTYYADSVKGRFTISRDNAKNTVYLQMNSLKPEDTAVYYCAAYYSGGYDYWGQGTQVTVSS	high polyreactivity
QVQLVESGGGLVQAGGSLRLSCAASGFIFYKNAMGWYRQAPGKERELVAAISASGVRTYYADSVKGRFTISRDNAKNTVYLQMNSLKPEDTAVYYSAADYTPEYYWGQGTQVTVSS	high polyreactivity
QVQLVESGGGLVQAGGSLRLSCAASGSTFTPNVMGWNRQAPGKEREYVAAINSSGGSTFYADSVKGRFTISRDTAKYTVYLQMNSLKPEDTAFYYCAASWHTPTFYDEYYYWGQGTQVTVSS	low polyreactivity
QVQLVESGGGLVQAGGSLRLSCAACGITFLSNAMGWYRQAPGKERELVAAITTSGGTTYADSVKGRFTISRDNAKNTVYLQMNSLKPEDTAVYYCNAVGYTPRKPSKFDYWGQGTQVTVSS	low polyreactivity
QVQLVESGGGLVQAGGSLRLSCAASGITFERNGKGWYRQAPGKEWELVAAIRSGGSTYYADSVKGRFTISRDNAKNTVYLQMNSLKPEDTAVYYCAAVTQGGYTYLGDYWGQGTQVTVSS	low polyreactivity
QVQLVESGGGLVQAGGSLRLSCAASGFTFYPYAMGWYRQAPGKERELVATISSGGTTNYADSVKGRFTISRDNAKNTVYLQMNSLKPEDTAVYYCAADYIRLFGPFDYWGQGTQVTVSS	low polyreactivity
QVQLVESGGGLVQAGGSLRLSCVASGRTFGNNAMGWYRQAHGKERELVAAITSGGSTNYADSVKGCFTISRDNAKNTVYLQMNSLKPEDTAVYYCAAKQYRAGGGYWGQGSQVTVSS	high polyreactivity
QVQLVESGGGLVQAGGSLRLSCAASGSIFEYNAMGWYRQAPGKERELVAAISWSSGTTYYADSVKGRFTISRDNAKNTVYLQMNSLKPEDTAVNYCIAGRYGKDSDYWGQGTQVTVSS	low polyreactivity
QVQLVESGGGLVQAGGSLRLSSAASGGTFDPYAMGWYRQAPGKERELVAAISDGRRTYYADSVKGRFTISRDNAKNSVYLLMNSRNTEETAVYYFDKCRLTSRICYYWWSAYHPSDYWGQGTQVSVSS	low polyreactivity
QVQLVESGGGLVQAGGSLRLSCAASGNTFLRYAMGWYRQAPGKERELVAAISRSGGSTYYADSVKGRFTISRDNAKNTVYLQMNSLKPEDTAVYYCATRVYFSPYRYDYWGQGTQVTVSS	high polyreactivity
QVHLVESGGGLVQVGGSLRLSCAASGSIFRWYAMGWYRQAPGKERELVAAISSSVGRTYYADSVKGRFTISRDNAKNTVYLQMNSLKPEDTAVYYCAVRYSVVYGTYYYWGQGTKVTVSS	high polyreactivity
QVQLVESGGGLVQAGGSLRLSCAASGFTFHVYAMGWSRQAPGKERELVAAISTGDDTTFYADSVKGRLTISRDNAKNTVYLQMNSLKPEDTAVYYCAAAYGTPYGGYDYWGQGTQVTVSS	low polyreactivity
QVQLEESGGGLVQAGGTLRLSCAASGGIIVSYAMGWYRPAPRKERELVAAITSGGGTSYADSVKGRFTISRDNAKNTVYLQLNSLKPEDTAVYYCNADGYLAERFVIRLVEFRDYDYWGQGTQVTVSS	low polyreactivity
QVQLVESGGGLVQAGGSLRLSCAASGSILDPNAMGWYRQAPGKERELVASISRGDNTYYADSVKGRFRISRDNAKNTVYLQMNSLKPEDTAVYYCAADYSWVVWHDYWGQGTQVTVSS	low polyreactivity
QVQLLESGGGLVQAGGSLRLSCAASGRIYLYAMGWYRQTPGKERELVAAISYSGGSTYYADSVKGRFTISRDNAKNTVYLQMNSLKPEDTAVYYCAAEAGSYWRWFWYDSWGQGTQVTVSS	high polyreactivity
QVQLEESGGGLVQAGGSLRLSCAASGSTVWANAMGWYRPAPGKERELVAAITSTGITYYADSVKGRFTISRDNAKNTVYLQMNSLTPEDTAVYYCAASFPGAGYGMDYWGQGTQVTVSS	low polyreactivity

Sequence	polyreactivity (PSR sort gate)
QVQLVESGGGLVQAGGSLRLSCAASGSIFVHNDMGWYRQAPGKERELVATIDSAGGTYYADSVKGRFTISRDNAKNTVYLQMNSLKPEDTAVYYCAAYGPYVLSIYDYWGQGTQVTVSS	low polyreactivity
QVHLVESGGGLVQAGGSLRLSCAASGRIFGRNAMGWYRQAPGKERELVAAISKRGGSTSYADSVKGRFTISRDNAKNTVYLQMNSLKPEDTAVYYCATSAPLVTSSGYGYWGHGTQVTVSS	high polyreactivity
QVQLVVSGGGLVQAGGSLRLSCAASGSIFPYYTMGWYRQAPGKEWELVAAISGSGTSTYYADSVKGRFTISRDNAKNTVYLQMNSLKPEDTAVYYCAKRFRYGYVNYYYWGQGTQVTVSS	low polyreactivity
QVQLVESGGGLVQAGGSLRLSCAASGFTFAVYVMGWYRPGRGKERELVAAISRSGGSTYYADSVKGRFTISRDNANNTDYLQMNSLNPEDTAVYYCAASPKRVLRESGDYCGQGTQVTVSS	high polyreactivity
QVQLVESGGGLVQGGGSLRLSCAASGSIFSTYVMGWYRQGPGKERELVAAISRRGGSTYYADSVKGRFTISRDNAKNTVYLQMNSLNPADTAVYYCAADGTVGRRDYWGQGTQVTVSS	high polyreactivity
QVQLVESGGGLVQAGGSLRLSCAASGSIFSTYAMGWYRQAPGKERELVAAISQGGSSTYYADSVKGRFTISRDNAKNTVYLQMNSLKPEDTAVYYCATPYSWYHRVYGYDYWGQGTQVTVSS	high polyreactivity
QVQLLESGGGLVQAGGSLRLSCAASGYFFSDNTMGWYRQAPGKERELVAAITSGGSSYYADSVKGGFTISRDIAKNTVYLQMNSLKQEDTAVYYCDKDVLHVRRVSGQYYSVDYWGQGTQVTVSS	low polyreactivity
QVQLVESGRGLVHAGGSHRISCAASGRTFYYYAMGWYRQAPGKERELVAAITRGGSTNYADSVKGRFTISRDNAKITVYLQMNSLKPEDTAVYYCAQPWFYQNRGYDYWGQGTQVTVSS	low polyreactivity
QVQLVESGGGLVQAGGSLRLSCAASGIIFPYYAMGWYRQAPGKERELVAAINSSGGSTFYAHSVKGRFTISRDNAKNTVYLQMNSLKPVVTAVYYCAAETLRYRWSLYYWGQGTQVTVSS	high polyreactivity
QVQLVESGGGLVQAGGSLRLSCAASGSTFYKNAMGWYRQAPGKERELVAAINQSGTRTYYADSVKGRFTISRDNAKNTVYLQMNSLKPEDTAVYYCAAGRGPYYRSRTPLYYWGQGTQVTVSS	high polyreactivity
QVQLVESGGGLVQAGGSLRLSCAASGSIFVENAMGWNRQAPGKEREFVAAITRSGGSTYYADSVKGRFTISRDNAKNTVYLQMKILKPEDTAVYYCSARIWDEQPAGGYYWGQGTQVTVSS	low polyreactivity
QVQLVESGGGLVQAGGSLRLSCAASGSTFRIYVMGWYRQAPGKEREFVAAISRGGGSTYYADSVKGRFTISRDNAKNTVYLQMNSLKPVDTAVYYCAAVTRDYGSRSGLDYWGQGTQVTVSS	high polyreactivity
QVQLVESGGGLVQAGGSLRLSSAASGRTFYVNAMGWYRQAPGKERELVAAITRSSGSTHYADSVKGRFTISRDNAKNTVYLQMNSLKPEDTAVYYCAADSTYRKYYYWGQGTQVTVSS	high polyreactivity
QVQLVESGGGLVQAGGSLRLSCAASGSIFGYYVMGWYRPAPGKERELVAGISYSGGRTYYADSVKGRFTISRDNAKNTVYLQMNSLQPEDTAVYYCAAEGTTSWWVKYGYWGQGTQVTVSS	low polyreactivity
QVQLVESGGGLVQAGGSLRLSCAASGIIIDYYTMGWYRQAPGQERELVAAINKSGGSTYADSVKGRFTISRDNAKNTVYLQMNSLKPEDTAVYYCAAEVDYSYWPEYARKYYYWGQGTQVTVSS	low polyreactivity
QVQLVESGGGLVQAGGSLRLSCAASGRTFSYYAMGWYRQAPGKERELVAAITDSGDSTYYADSVKGRFTISRDNAKNTVYLQMNSLKPEDTAVYYCAAEIYSYYRFYWYDYWGQGTQVTVSS	high polyreactivity
